Reference: patent US20210277066A1 (BRIGHAM AND WOMEN S HOSPITAL, published 2021)

B1: AAV.CPP.16 (other)
chain: MAADGYLPDWLEDNLSEGIREWWALKPGAPQPKANQQHQDNARGLVLPGYKYLGPGNGLDKGEPVNAADAAALEHDKAYDQQLKAGDNPYLKYNHADAEFQERLKEDTSFGGNLGRAVFQAKKRLLEPLGLVEEAAKTAPGKKRPVEQSPQEPDSSAGIGKSGAQPAKKRLNFGQTGDTESVPDPQPIGEPPAAPSGVGSLTMASGGGAPVADNNEGADGVGSSSGNWHCDSQWLGDRVITTSTRTWALPTYNNHLYKQISNSTSGGSSNDNAYFGYSTPWGYFDFNRFHCHFSPRDWQRLINNNWGFRPKRLNFKLFNIQVKEVTDNNGVKTIANNLTSTVQVFTDSDYQLPYVLGSAHEGCLPPFPADVFMIPQYGYLTLNDGSQAVGRSSFYCLEYFPSQMLRTGNNFQFSYEFENVPFHSSYAHSQSLDRLMNPLIDQYLYYLSKTINGSGQNQQTLKFSVAGPSNMAVQGRNYIPGPSYRQQRVSTTVTQNNNSEFAWPGASSWALNGRNSLMNPGPAMASHKEGEDRFFPLSGSLIFGKQGTGRDNVDADKVMITNEEEIKTTNPVATESYGQVATNHQSAQTVSALKAQAQTGWVQNQGILPGMVWQDRDVYLQGPIWAKIPHTDGNFHPSPLMGGFGMKHPPPQILIKNTPVPADPPTAFNKDKLNSFITQYSTGQVSVEIEWELQKENSKRWNPEIQYTSNYYKSNNVEFAVNTEGVYSEPRPIGTRYLTRNL
notes: Tested as a whole recombinant AAV particle (rAAV-mCherry); also called Bip2.1 insert TVSALK
B2: AAV.CPP.21 (other)
chain: MAADGYLPDWLEDNLSEGIREWWALKPGAPQPKANQQHQDNARGLVLPGYKYLGPGNGLDKGEPVNAADAAALEHDKAYDQQLKAGDNPYLKYNHADAEFQERLKEDTSFGGNLGRAVFQAKKRLLEPLGLVEEAAKTAPGKKRPVEQSPQEPDSSAGIGKSGAQPAKKRLNFGQTGDTESVPDPQPIGEPPAAPSGVGSLTMASGGGAPVADNNEGADGVGSSSGNWHCDSQWLGDRVITTSTRTWALPTYNNHLYKQISNSTSGGSSNDNAYFGYSTPWGYFDFNRFHCHFSPRDWQRLINNNWGFRPKRLNFKLFNIQVKEVTDNNGVKTIANNLTSTVQVFTDSDYQLPYVLGSAHEGCLPPFPADVFMIPQYGYLTLNDGSQAVGRSSFYCLEYFPSQMLRTGNNFQFSYEFENVPFHSSYAHSQSLDRLMNPLIDQYLYYLSKTINGSGQNQQTLKFSVAGPSNMAVQGRNYIPGPSYRQQRVSTTVTQNNNSEFAWPGASSWALNGRNSLMNPGPAMASHKEGEDRFFPLSGSLIFGKQGTGRDNVDADKVMITNEEEIKTTNPVATESYGQVATNHQSAQTVSALFKAQAQTGWVQNQGILPGMVWQDRDVYLQGPIWAKIPHTDGNFHPSPLMGGFGMKHPPPQILIKNTPVPADPPTAFNKDKLNSFITQYSTGQVSVEIEWELQKENSKRWNPEIQYTSNYYKSNNVEFAVNTEGVYSEPRPIGTRYLTRNL
notes: Tested as a whole recombinant AAV particle (rAAV-mCherry); also called Bip2.6 insert TVSALFK

Molecular target: T1, mouse LY6A (mouse, UniProt P05533 27-112)
T1 construct: whole, on cells; Over-expressed on HEK293T cells
T1 sequence: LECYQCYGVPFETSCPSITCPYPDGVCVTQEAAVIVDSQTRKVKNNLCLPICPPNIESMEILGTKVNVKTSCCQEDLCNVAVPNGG
Assay: AAV binding to LY6A-transfected HEK293T cells on ice; bound viral genomes counted by qPCR

| Binder | binding result |
| --- | --- |
| B1 | no binding (tested: MOI of 10000) |
| B2 | no binding (tested: MOI of 10000) |
